The values below come from patent US6974863 (INDIANA UNIVERSITY RESEARCH AND TECHNOLOGY, dated 2005).

The target of assay [1] is 4-1BB-AP binding sites (putative cell-surface 4-1BB ligand) on mature B cells and macrophages. Put plainly: competition on A20 cells: 20 µg/ml rs4-1BB (50 fold excess) before 4-1BB-AP at 375 ng/ml as competitor; AP activity.
Assay [2] deals with T1, human vitronectin (human, UniProt P04004 20-478).
T1 construct: Bought protein
Nature of the assay: ELISA, human vitronectin immobilized on microtiter plates, AP activity (data not shown). As to the method:
Chalupny and colleagues (132) have proposed that 4-1BB Rg, a fusion protein consisting of the extracellular domain of 4-1BB and the Fc region of human IgG, bound to the extracellular matrix (ECM). The highest levels of 4-1BB Rg binding was to human vitronectin. In data not shown, an ELISA was performed using 4-1BB-AP and human vitronectin (Yelios Pharmaceuticals/GIBCO-BRL, Grand Island, N.Y.) immobilized at 0.007 μg–10 μg per well on microtiter plates. No binding of 4-1BB-AP based on AP activity was observed. To rule out the possibility that 4-1BB-AP was binding to proteins extrinsically attached to the cell surface (possible extracellular matrix components), B-cell lymphomas were washed in acid conditions prior to the binding assay (115). 4-1BB-AP still bound specifically to mature B-cell lymphomas (data not shown). We are currently determining whether a 4-1BB-ligand specifically expressed on B cells and macrophages exists, and whether 4-1BB-AP may bind to the ECM under particular binding conditions. It is possible that the ECM could facilitate the binding of 4-1BB to a specific cell-surface ligand.

The target in assay [3] is T2, mutated p56lck, construct C2 (cys 23-ser) (murine, UniProt P06240 2-509).
T2 construct: Expressed in HeLa cells with the vaccinia T7 system; also called mutant p56^lck C2
Nature of the assay: coimmunoprecipitation with 53A2, in vitro kinase labeling, HeLa cells. The source says: (§1) High levels of coexpression have been achieved previously with this system to facilitate interactions between CD4 and p56^lck. To ensure consistent expression of 4-1BB, the transfected HeLa cells were briefly labeled with [^35S] cysteine before harvest. 4-1BB expression was monitored by immunoprecipitation of ^35S-labeled 4-1BB with 53A2.
(§2) FIGS. 32a–c show an analysis of the association of 4-1BB and p56^lck HeLa cells. […] Lysates were immunoprecipitated with antibodies to p56^lck and 4-1BB and labeled with [γ-^32P] ATP by the in vitro kinase reaction. The positions of p56^lck and 4-1BB are indicated to the right. Total HeLa celll lysates were immunoblotted with antibody top56^lck assay thep56^lck expression. FIGS. 32b and 32c show an immune complex kinase assay. Aliquots of the saline lysates were immunoprecipitated with antip56^lck serum (FIG. 32b) or 53A2 (FIG. 32c) followed by the in vitro kinase reaction with [γ-^32P] ATP as described in the legend to FIG. 30. […] HeLa celis were grown to 80% confluency on 100-mm petri dishes in DMEM containing 10% FBS and antibiotics. Cells were infected with 1×10^8 pfu of vaccinia virus expressing T7 RNA polymerase (136) 30 min before transfection. DNA was transfected in liposomes (Lipofectin, GIBCO, BRL). 15 μg DNA and 50 μl liposome diluted into 5 ml serum-free DMEM were incubated in 12×75 mm polystyrene tubes at room temperature for 15 min. […]

Assay [4] addresses T3, mutated p56lck, construct C1 (cys 20-ser) (murine, UniProt P06240 2-509).
T3 construct: Expressed in HeLa cells with the vaccinia T7 system; also called mutant p56^lck C1
The assay is described as above.
Source text: as §1, §2

T2 sequence (P06240 other isoform, or with tags, fused parts or gaps limits assumed, change not shown): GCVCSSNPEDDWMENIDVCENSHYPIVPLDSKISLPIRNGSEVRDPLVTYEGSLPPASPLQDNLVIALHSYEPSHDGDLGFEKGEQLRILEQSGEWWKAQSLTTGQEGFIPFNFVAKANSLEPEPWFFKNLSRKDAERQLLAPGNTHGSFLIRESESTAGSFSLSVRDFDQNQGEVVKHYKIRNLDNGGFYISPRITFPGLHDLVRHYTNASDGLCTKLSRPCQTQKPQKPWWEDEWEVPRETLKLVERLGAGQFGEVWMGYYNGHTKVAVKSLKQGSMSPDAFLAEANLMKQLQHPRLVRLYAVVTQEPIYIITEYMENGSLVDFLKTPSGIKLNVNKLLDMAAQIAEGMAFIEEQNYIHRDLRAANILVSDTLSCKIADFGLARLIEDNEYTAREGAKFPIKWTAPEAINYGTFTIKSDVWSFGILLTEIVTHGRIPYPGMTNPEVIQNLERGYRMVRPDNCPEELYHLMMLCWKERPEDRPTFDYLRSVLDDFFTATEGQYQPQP
T1 sequence (P04004 20-478 limits assumed): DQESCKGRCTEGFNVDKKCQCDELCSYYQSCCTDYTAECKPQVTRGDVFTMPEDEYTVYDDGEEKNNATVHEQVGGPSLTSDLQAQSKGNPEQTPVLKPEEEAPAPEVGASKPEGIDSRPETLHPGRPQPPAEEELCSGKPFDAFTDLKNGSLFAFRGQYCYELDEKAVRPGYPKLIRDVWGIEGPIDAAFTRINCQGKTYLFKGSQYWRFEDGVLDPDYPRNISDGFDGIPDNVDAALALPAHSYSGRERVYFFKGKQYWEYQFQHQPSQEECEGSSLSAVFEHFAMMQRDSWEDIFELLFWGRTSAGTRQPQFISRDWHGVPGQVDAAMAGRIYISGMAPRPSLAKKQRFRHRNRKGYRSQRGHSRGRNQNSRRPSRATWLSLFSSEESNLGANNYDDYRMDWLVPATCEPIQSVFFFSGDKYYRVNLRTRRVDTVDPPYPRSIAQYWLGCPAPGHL
T3 sequence (P06240 other isoform, or with tags, fused parts or gaps limits assumed, change not shown): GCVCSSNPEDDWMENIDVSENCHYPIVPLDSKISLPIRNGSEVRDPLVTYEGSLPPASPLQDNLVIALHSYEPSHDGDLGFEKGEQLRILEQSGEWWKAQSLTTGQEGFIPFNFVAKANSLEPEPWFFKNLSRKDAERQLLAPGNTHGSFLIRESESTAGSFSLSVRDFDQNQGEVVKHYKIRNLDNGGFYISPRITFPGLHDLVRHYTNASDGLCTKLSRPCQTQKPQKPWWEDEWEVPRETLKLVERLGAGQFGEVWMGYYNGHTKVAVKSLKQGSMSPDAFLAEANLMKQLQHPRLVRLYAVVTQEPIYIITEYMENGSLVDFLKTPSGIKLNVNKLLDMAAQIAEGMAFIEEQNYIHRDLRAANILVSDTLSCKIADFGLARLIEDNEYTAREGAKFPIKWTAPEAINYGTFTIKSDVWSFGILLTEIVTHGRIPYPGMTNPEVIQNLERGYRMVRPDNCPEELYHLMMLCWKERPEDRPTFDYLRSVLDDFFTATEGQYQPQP

In assay [1], “recombinant soluble 4-1BB protein (extracellular domain of mouse 4-1BB) (from UniProt P20334 24-187) (receptor)” registered a percent of 4-1BB-AP binding blocked of 70%.

B1: 4-1BB-AP fusion protein (extracellular domain of 4-1BB fused to human placental alkaline phosphatase) (other)
chain: VQNSCDNCQPGTFCRKYNPVCKSCPPSTFSSIGGQPNCNICRVCAGYFRFKKFCSSTHNAECECIEGFHCLGPQCTRCEKDCRPGQELTKQGCKTCSLGTFNDQNGTGVCRPWTNCSLDGRSVLKTGTTEKDVVCGPPVVSFSPSTTISVTPEGGPGGHSLQVL
notes: Signal peptide and entire extracellular domain of 4-1BB up to the first hydrophobic residue of the transmembrane region, joined in frame upstream of AP; secreted by NIH-3T3 transfectants; also called 4-1BB-Alkaline Phosphatase; 85 kDa fusion protein; not shown: human placental alkaline phosphatase as coded in the APtag-1 vector
As to B1, the binding result in assay [2] is reported as “no binding (tested: 0.007 µg-10 µg per well)”.

B2: mouse receptor protein 4-1BB (full length) (receptor)
chain: VQNSCDNCQPGTFCRKYNPVCKSCPPSTFSSIGGQPNCNICRVCAGYFRFKKFCSSTHNAECECIEGFHCLGPQCTRCEKDCRPGQELTKQGCKTCSLGTFNDQNGTGVCRPWTNCSLDGRSVLKTGTTEKDVVCGPPVVSFSPSTTISVTPEGGPGGHSLQVLTLFLALTSALLLALIFITLLFSVLKWIRKKFPHIFKQPFKKTTGAAQEEDACSCRCPQEEEGGGGGYEL
notes: Native on T cells (CTLL-R8, CTLL-2, F1, splenic T cells, thymocytes) or recombinant full length in Sf-21 and HeLa cells; also tested in lysates and blots; Seen as 30 kDa monomer, 55 kDa dimer and possibly 110 kDa tetramer; homodimer not proven; also called 4-1BBP; 4-1BBL (full length cDNA construct)
For B2, the binding result in assay [3] and in assay [4] was “no binding” each time.
